Test results published in PMC3580015 (Archives of biochemistry and biophysics, 2013).
“And” between values parts separate entries of the source, which are not always exact repeats. Identical values can stand only once.

B1: full length rat phenylalanine hydroxylase (PAH) (enzyme, UniProt P04176 1-453, looked up)
chain: MAAVVLENGVLSRKLSDFGQETSYIEDNSNQNGAISLIFSLKEEVGALAKVLRLFEENDINLTHIESRPSRLNKDEYEFFTYLDKRTKPVLGSIIKSLRNDIGATVHELSRDKEKNTVPWFPRTIQELDRFANQILSYGAELDADHPGFKDPVYRARRKQFADIAYNYRHGQPIPRVEYTEEEKQTWGTVFRTLKALYKTHACYEHNHIFPLLEKYCGFREDNIPQLEDVSQFLQTCTGFRLRPVAGLLSSRDFLGGLAFRVFHCTQYIRHGSKPMYTPEPDICHELLGHVPLFSDRSFAQFSQEIGLASLGAPDEYIEKLATIYWFTVEFGLCKEGDSIKAYGAGLLSSFGELQYCLSDKPKLLPLELEKTACQEYSVTEFQPLYYVAESFSDAKEKVRTFAATIPRPFSVRYDPYTQRVEVLDNTQQLKILADSINSEVGILCNALQKIKS
B2: full length human phenylalanine hydroxylase (PAH) (enzyme, UniProt P00439 1-452, looked up)
chain: MSTAVLENPGLGRKLSDFGQETSYIEDNCNQNGAISLIFSLKEEVGALAKVLRLFEENDVNLTHIESRPSRLKKDEYEFFTHLDKRSLPALTNIIKILRHDIGATVHELSRDKKKDTVPWFPRTIQELDRFANQILSYGAELDADHPGFKDPVYRARRKQFADIAYNYRHGQPIPRVEYMEEEKKTWGTVFKTLKSLYKTHACYEYNHIFPLLEKYCGFHEDNIPQLEDVSQFLQTCTGFRLRPVAGLLSSRDFLGGLAFRVFHCTQYIRHGSKPMYTPEPDICHELLGHVPLFSDRSFAQFSQEIGLASLGAPDEYIEKLATIYWFTVEFGLCKQGDSIKAYGAGLLSSFGELQYCLSEKPKLLPLELEKTAIQNYTVTEFQPLYYVAESFNDAKEKVRNFAATIPRPFSVRYDPYTQRIEVLDNTQQLKILADSINSEIGILCSALQKIK

Target: the molecule itself
Assay: native gel or EMSA

Row | Protein | stoichiometry N
1 | B1 | 4 and 2
2 | B2 | 4 and 2
